Source: patent US20230374127A1 (LG CHEM, published 2023)

Target: T1, human LILRB1 protein (LILRB1-His, RnD systems Cat. No. 8989-T2) (human, UniProt Q8NHL6 24-458, limits assumed)
T1 construct: Bought protein; also called LILRB1 antigen; the antigen, LILRB1; not shown: His tag
Assay: SPR, Biacore T200; antibody captured by anti-human IgG (Fc), LILRB1-His injected 25-400 nM
Description: The binding affinities of the 19 antibodies, which were selected in Example 3, to the antigen, LILRB1, were measured using Biacore T200 (GE healthcare). An anti-human IgG (Fc) antibody (GE healthcare, Cat. No. BR-1008-39, final concentration of 25 μg/mL) was flowed at the flow rate of 5 μL/min for 360 seconds to be immobilized at 5000-7000 RU on Series S Sensor Chip CM5 (GE healthcare, Cat. No. BR-1005-30) using Amine Coupling Kit (GE healthcare, Cat. No. BR-1000-50).

T1 sequence (Q8NHL6 24-458 limits assumed): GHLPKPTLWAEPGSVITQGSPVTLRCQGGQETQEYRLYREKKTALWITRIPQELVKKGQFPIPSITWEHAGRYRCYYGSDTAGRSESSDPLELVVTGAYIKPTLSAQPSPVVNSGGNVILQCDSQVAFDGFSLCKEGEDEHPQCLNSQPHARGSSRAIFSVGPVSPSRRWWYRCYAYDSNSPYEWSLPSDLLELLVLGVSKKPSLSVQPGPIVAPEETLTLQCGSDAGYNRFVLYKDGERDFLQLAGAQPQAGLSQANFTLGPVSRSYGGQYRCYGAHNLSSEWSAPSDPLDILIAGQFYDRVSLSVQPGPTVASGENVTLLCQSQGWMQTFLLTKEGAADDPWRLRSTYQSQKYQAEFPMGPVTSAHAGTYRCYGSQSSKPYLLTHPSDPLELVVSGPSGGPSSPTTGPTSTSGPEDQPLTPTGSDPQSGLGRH

B1: anti-LILRB1 antibody No. 10 (antibody, human IgG4 S228P, kappa, F234A L235A, V domains shown)
VH: QVQLVQSGAEVKKPGSSVKVSCKASGGTFSSHYMHWVRQAPGQGLEWMGWISPYLGSTNYAQKFQGRVTITADESTSTAYMELSSLRSEDTAVYYCARDETGSTYGAFDYWGQGTLVTVSS
VL: DIQMTQSPSSLSASVGDRVTITCRASQSISNYLNWYQQKPGKAPKLLIYAASNLQSGVPSRFSGSGSGTDFTLTISSLQPEDFATYYCQQSYSFPFTFGQGTKVEIKR
notes: Human IgG4 / kappa, expressed in ExpiCHO-S cells; also called clone 10
A Kd of 24.1 nM, a koff of 0.000298 s⁻¹ and a kon of 12300 M⁻¹ s⁻¹ were found for B1 in this work.
